The chains are these.
B1: high affinity PDL-1 molecule L3C7a (ligand)
chain: FTVTVPKDLYVVEYGSNMTIECKFPVEKQLDLAALEVHWFMEDKNIFSFVHGEEDLKVQHSSYRQRARLLKDQLSLGNAALQITDVKLQDAGVYTCLIGYKGADYKRITVKVNAPYNKINQRILVVDPVTSEHELTCQAEGYPKAEVIWTSSDHQVLSGKTTTTNSKREEKLFNVTSTLRINTTTNEIFYCTFRRLDPEENHTAELVIPEL
B2: high affinity PDL-1 molecule L22A5 (ligand)
chain: FTVTVPKDLYVVEYGSNMTIECKFPVEKQLDLAALQVHWFMEDKNIPSFVHGEEDLKVQHSSYRQRARLLKDQLSLGNAALQITDVKLQDAGVYRCMISYGGADYKRITVKVNAPYNKINQRILVVDPVTSEHELTCQAEGYPKAEVIWTSSDHQVLSGKTTTTNSKREEKLFNVTSTLRINTTTNEIFYCTFRRLDPEENHTAELVIPEL
B3: high affinity PDL-1 molecule L3C7b (ligand)
chain: FTVTVPKDLYVVEYGSNMTIECKFPVEKQLDLAALEVHWFMEDKNIFSFVHGEEDLKVQHSSYRQRARLLKDQLSLGNAALQITDVKLQDAGVYVCLIGYKGADYKRITVKVNAPYNKINQRILVVDPVTSEHELTCQAEGYPKAEVIWTSSDHQVLSGKTTTTNSKREEKLFNVTSTLRINTTTNEIFYCTFRRLDPEENHTAELVIPEL
B4: high affinity PDL-1 molecule L3D9 (ligand)
chain: FTVTVPKDLYVVEYGSNMTIECKFPVEKQLDLAALNVFWFMEDKNIIQFVHGEEDLKVQHSSYRQRARLLKDQLSLGNAALQITDVKLQDAGVYTCLIGYEGADYKRITVKVNAPYNKINQRILVVDPVTSEHELTCQAEGYPKAEVIWTSSDHQVLSGKTTTTNSKREEKLFNVTSTLRINTTTNEIFYCTFRRLDPEENHTAELVIPEL
B5: high affinity PDL-1 molecule L3G10 (ligand)
chain: FTVTVPKDLYVVEYGSNMTIECKFPVEKQLDLAALTVAWYMEDKNIIQFVHGEEDLKVQHSSYRQRARLLKDQLSLGNAALQITDVKLQDAGVYTCLIGYDGADYKRITVKVNAPYNKINQRILVVDPVTSEHELTCQAEGYPKAEVIWTSSDHQVLSGKTTTTNSKREEKLFNVTSTLRINTTTNEIFYCTFRRLDPEENHTAELVIPEL
B6: high affinity PDL-1 molecule L22C7 (ligand)
chain: FTVTVPKDLYVVEYGSNMTIECKFPVEKQLDLAALEVHWFMEDKNIISFVHGEEDLKVQHSSYRQRARLLKDQLSLGNAALQITDVKLQDAGVYRCMISYGGADYKRITVKVNAPYNKINQRILVVDPVTSEHELTCQAEGYPKAEVIWTSSDHQVLSGKTTTTNSKREEKLFNVTSTLRINTTTNEIFYCTFRRLDPEENHTAELVIPEL
B7: high affinity PDL-1 molecule L22D5 (ligand)
chain: FTVTVPKDLYVVEYGSNMTIECKFPVEKQLDLAALQVHWFMEDKNIFSFVHGEEDLKVQHSSYRQRARLLKDQLSLGNAALQITDVKLQDAGVYRCMISYGGADYKRITVKVNAPYNKINQRILVVDPVTSEHELTCQAEGYPKAEVIWTSSDHQVLSGKTTTTNSKREEKLFNVTSTLRINTTTNEIFYCTFRRLDPEENHTAELVIPEL
B8: high affinity PDL-1 molecule L32G5 (ligand)
chain: FTVTVPKDLYVVEYGSNMTIECKFPVEKQLDLAALIVYWEMEDKNIIQFVHGEEDLKVQHSSYRQRARLLKDQLSLGNAALQITDVKLQDAGVYTCLIGYHGADYKRITVKVNAPYNKINQRILVVDPVTSEHELTCQAEGYPKAEVIWTSSDHQVLSGKTTTTNSKREEKLFNVTSTLRINTTTNEIFYCTFRRLDPEENHTAELVIPEL
B9: high affinity PDL-1 molecule L3C7c (ligand)
chain: WTVTVPKDLYVVEYGSNMTIECKFPVEKQLDLAALEVHWFMEDKNIFSFVHGEEDLKVQHSSYRQRARLLKDQLSLGNAALQITDVKLQDAGVYTCLIGYKGADYKRITVKVNAPYNKINQRILVVDPVTSEHELTCQAEGYPKAEVIWTSSDHQVLSGKTTTTNSKREEKLFNVTSTLRINTTTNEIFYCTFRRLDPEENHTAELVIPEL
B10: high affinity PDL-1 molecule L3C7d (ligand)
chain: WTVTVPKDLYVVEYGSNMTIECKFPVEKQLDLAALEVHWFMEDKNIFSFVHGEEDLKVQHSSYRQRARLLKDQLSLGNAALQITDVKLQDAGVYTCLIGYKGGADYKRITVKVNAPYNKINQRILVVDPVTSEHELTCQAEGYPKAEVIWTSSDHQVLSGKTTTTNSKREEKLFNVTSTLRINTTTNEIFYCTFRRLDPEENHTAELVIPEL

T1 sequence (Q15116 33-150 limits assumed): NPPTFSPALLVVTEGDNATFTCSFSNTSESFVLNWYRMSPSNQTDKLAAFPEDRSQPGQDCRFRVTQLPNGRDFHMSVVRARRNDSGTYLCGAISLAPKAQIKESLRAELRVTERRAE

The experiment has as its target T1, PD-1 molecule (refolded, purified and biotinylated PD-1 of Example 2) (UniProt Q15116 33-150, biotinylated with BirA enzyme (site not stated)).
T1 construct: also called Programmed Death-1
In words: SPR (BIAcore T200), single-cycle kinetics; biotinylated PD-1 captured via streptavidin, PDL-1 variant in solution. Here is the method: The anti-streptavidin antibody (GenScript) was added to the coupling buffer (10 mM sodium acetate buffer, pH 4.77). The antibody was then flowed through a CMS chip previously activated with EDC and NHS to immobilize the antibody on the chip surface. Finally, the unreacted activation surface was blocked with a solution of ethanolamine hydrochloride to complete the coupling process.
A low concentration of streptavidin is allowed to flow over the surface of the antibody-coated chip, then the biotinylated PD-1 is passed through the detection channel and the other channel is used as a reference channel. Then, 0.05 mM biotin was passed through the chip at a flow rate of 10 μL/min for 2 min to block the remaining binding sites of streptavidin. The single-cycle kinetic analysis method was used to measure its affinity. […] The binding time for each injection was 120 s, and it was disassociated for 600 s after the last injection. The chips were regenerated with 10 mMGly-HCl, pH 1.75 after each round of assays. Kinetic parameters were calculated using BIAcore Evaluation software.
On the technique in general: In SPR one partner is held on a chip, and binding of the other changes the refractive index at the surface.
The term Kd denotes the equilibrium constant for the complex coming apart. Low readings indicate a tighter complex, high ones a looser complex. A word on the koff: it is a measure of how fast the partners let go of each other. Higher therefore signals a short-lived complex. The term kon denotes the rate constant with which the complex forms. A higher kon goes with faster complex formation. In the case of B1, the equilibrium dissociation constant (Kd) was 0.115 µM, the koff was determined as 0.0139 s⁻¹ and the kon turned out to be 120000 M⁻¹ s⁻¹.

Consider B2, for which the equilibrium dissociation constant (Kd) was found to be 4.84 µM, the koff is 0.0559 s⁻¹ and the kon worked out at 11500 M⁻¹ s⁻¹.

In turn, B3 came in with a Kd of 0.123 µM, a koff of 0.0176 s⁻¹ and a kon of 143000 M⁻¹ s⁻¹.

For B4, binding was characterised by a dissociation constant (Kd) of 3.39 µM, the koff was found to be 0.0871 s⁻¹ and the association rate constant (kon) was found to be 25700 M⁻¹ s⁻¹.

For B5, the Kd stood at 11.8 µM, the koff was found to be 0.263 s⁻¹ and the association rate constant (kon) stood at 22200 M⁻¹ s⁻¹.

As for B6, the affinity, expressed as Kd, was 11.9 µM; the off-rate (koff) amounted to 0.133 s⁻¹; the kon amounted to 11200 M⁻¹ s⁻¹.

In turn, B7 showed a Kd of 6.48 µM, a koff of 0.268 s⁻¹ and a kon of 41400 M⁻¹ s⁻¹.

For B8, the Kd came to 2.98 µM, the off-rate (koff) was 0.169 s⁻¹ and the kon is 56600 M⁻¹ s⁻¹.

In turn, B9 came in with a Kd of 0.106 µM, a koff of 0.0155 s⁻¹ and a kon of 147000 M⁻¹ s⁻¹.

B10: the Kd amounted to 0.0539 µM, the koff worked out at 0.0059 s⁻¹ and the kon turned out to be 109000 M⁻¹ s⁻¹.

These data come from patent publication US20180291081A1 (GUANGZHOU INSTITUTES OF BIOMEDICINE AND HEALTH CHINESE …, published 2018).
